Source: publication PMC9744887, “Structural mechanism of signal transduction in a phytochrome histidine kinase” (Nature Communications, 2022)

Target: the molecule itself
Test: cryo-EM structure; single-particle cryo-EM of DrBphP-DrRR in the Pr state: 780 nm far-red light on the grid; 1-1.5 mg/ml protein with 10 mM CaCl2, 10 mM MgCl2, 4 mM AMP-PNP; Vitrobot at 4 °C; no symmetry imposed

Protein | stoichiometry N | binding result
DrBphP-DrRR fusion protein (Deinococcus radiodurans phytochrome fused to its response regulator by a 12 amino acid tether) (other, biliverdin (BV) chromophore; lysate incubated with a molar excess of biliverdin hydrochloride, 938-aa construct in pET21b(+), counting the N-terminal T7-tag and the C-terminal His6-tag; Models were built up to Leu591 (Pr) and for residues 22-521 (Pfr); also called full-length DrBphP-DrRR; source: E. coli BL21 (DE3), purified (NiNTA, size-exclusion chromatography)) MSRDPLPFFPPLYLGGPEITTENCEREPIHIPGSIQPHGALLTADGHSGEVLQMSLNAATFLGQEPTVLRGQTLAALLPEQWPALQAALPPGCPDALQYRATLDWPAAGHLSLTVHRVGELLILEFEPTEAWDSTGPHALRNAMFALESAPNLRALAEVATQTVRELTGFDRVMLYKFAPDATGEVIAEARREGLHAFLGHRFPASDIPAQARALYTRHLLRLTADTRAAAVPLDPVLNPQTNAPTPLGGAVLRATSPMHMQYLRNMGVGSSLSVSVVVGGQLWGLIACHHQTPYVLPPDLRTTLEYLGRLLSLQVQVKEAADVAAFRQSLREHHARVALAAAHSLSPHDTLSDPALDLLGLMRAGGLILRFEGRWQTLGEVPPAPAVDALLAWLETQPGALVQTDALGQLWPAGADLAPSAAGLLAISVGEGWSECLVWLRPELRLEVAWGGATPDQAKDDLGPRHSFDTYLEEKRGYAEPWHPGEIEEAQDLRDTLTGALGERLSVIRDLNRALTQSNAEWRQYGFVISHHMQEPVRLISQFAELLTRQPRAQDGSPDSPQTERITGFLLRETSRLRSLTQDLHTYTALLSAPPPVRRPTPLGRVVDDVLQDLEPRIADTGASIEVAPELPVIAADAGLLRDLLLHLIGNALTFGGPEPRIAVRTERQGAGWSIAVSDQGAGIAPEYQERIFLLFQRLGSLDEALGNGLGLPLCRKIAELHGGTLTVESAPGEGSTFRCWLPDAGPLPGAADAASSAGGSAGSAGMPERASVPLRLLLVEDNAADIFLMEMALEYSSVHTELLVARDGLEALELLEQAKTGGPFPDLILLDLNMPRVDGFELLQALRADPHLAHLPAIVLTTSNDPSDVKRAYALQANSYLTKPSTLEDFLQLIERLTAYWFGTAAIPQTYQPQ | 2 | –
Phytochrome from Deinococcus radiodurans (DrBphP), as the phytochrome part of the DrBphP-DrRR fusion (enzyme, biliverdin (BV) chromophore; lysate incubated with a molar excess of biliverdin hydrochloride, see m1; also called full-length DrBphP; source: E. coli BL21 (DE3), purified (NiNTA, size-exclusion chromatography), as part of the fusion m1) MSRDPLPFFPPLYLGGPEITTENCEREPIHIPGSIQPHGALLTADGHSGEVLQMSLNAATFLGQEPTVLRGQTLAALLPEQWPALQAALPPGCPDALQYRATLDWPAAGHLSLTVHRVGELLILEFEPTEAWDSTGPHALRNAMFALESAPNLRALAEVATQTVRELTGFDRVMLYKFAPDATGEVIAEARREGLHAFLGHRFPASDIPAQARALYTRHLLRLTADTRAAAVPLDPVLNPQTNAPTPLGGAVLRATSPMHMQYLRNMGVGSSLSVSVVVGGQLWGLIACHHQTPYVLPPDLRTTLEYLGRLLSLQVQVKEAADVAAFRQSLREHHARVALAAAHSLSPHDTLSDPALDLLGLMRAGGLILRFEGRWQTLGEVPPAPAVDALLAWLETQPGALVQTDALGQLWPAGADLAPSAAGLLAISVGEGWSECLVWLRPELRLEVAWGGATPDQAKDDLGPRHSFDTYLEEKRGYAEPWHPGEIEEAQDLRDTLTGALGERLSVIRDLNRALTQSNAEWRQYGFVISHHMQEPVRLISQFAELLTRQPRAQDGSPDSPQTERITGFLLRETSRLRSLTQDLHTYTALLSAPPPVRRPTPLGRVVDDVLQDLEPRIADTGASIEVAPELPVIAADAGLLRDLLLHLIGNALTFGGPEPRIAVRTERQGAGWSIAVSDQGAGIAPEYQERIFLLFQRLGSLDEALGNGLGLPLCRKIAELHGGTLTVESAPGEGSTFRCWLPDAGPLPGAADA | – | binds
